Publication PMC11808123

What was measured:
[1] = target: Recombinant CDK2 (human, full length), biotinylated (human) (UniProt P24941); test: BLI; with 100 nM INX-315; conditions: domain or fragment
[2] = target: Recombinant CDK2 (human, full length), biotinylated (human) (UniProt P24941); test: BLI; no drug; conditions: domain or fragment

- Kd [1]: 0.24 nM
- koff [1]: 5e-05 s⁻¹
- Kd [2]: 0.57 nM
- koff [2]: 0.00011 s⁻¹
Substance: Recombinant cyclin A (human Cyclin A, residues 173-465)
